B1: Hep II domain: recombinant 33 kilodalton Hep II domain of fibronectin containing type III repeats 12, 13 and 14 (SEQ ID NO:2) (protein, listed as Homo sapiens)
chain: IPAPTDLKFTQVTPTSLSAQWTPPNVQLTGYRVRVTPKEKTGPMKEINLAPDSSSVVVSGLMVATKYEVSVYALKDTLTSRPAQGVVTTLENVSPPRRARVTDATETTITISWRTKTETITGFQVDAVPANGQTPIQRTIKPDVRSYTITGLQPGTDYKIYLYTLNDNARSSPVVIDASTAIDAPSNLRFLATTPNSLLVSWQPPRARITGYIIKYEKPGSPPREVVPRPRPGVTEATITGLEPGTEYTIYVIALKNNQKSEPLIGRKKT

Columns and labels:
[1] = system: differentiated human TM (HTM) cell cultures; test: Differentiated HTM cell cultures incubated with recombinant protein; extracellular matrix and cell contacts by immunofluorescence, phase microscopy and western blot; format: cell-based; details: for disruption of cell contacts or matrix assembly: pentapeptides administered separately to HTM cell cultures
Description: (§1) Differentiated human TM (HTM) cell cultures were incubated with a recombinant Hep II domain protein for eighteen hours. The effect on the extracellular matrix and cell contacts were observed using immunofluorescence microcopy, phase microscopy and western blot. Differentiated HTM cultures look like endothelial cells and form cell to cell junctions and closely resemble TM cells in vivo. Differentiated HTM cells also secrete matrix proteins such as fibronectin, type IV collagen and laminin. Non-differentiated cells lack these qualities and are less suitable for in vitro analysis methods. Cells were grown as described in Polansky J R, Weinreb R, Alvarado J A. Studies on human trabecular cells propagated in vitro. Vis Res 1981;21 :155-60 and Polansky J R, Weinreb R N, Baxter J D, Alvarado J. Human trabecular cells. I. Establishment in tissue culture and growth characteristics. Invest Ophthalmol Vis Sci 1979;18:1043-9, both incorporated by reference in their entirety.
After incubation, the turnover of fibronectin fibrils, a good indicator of matrix formation, was studied. […] The Hep II protein was a GST protein. The GST portion was cleaved with thrombin as described by Bultmann, H., et al., Fibronectin Fibrilogenesis Involves the Heparin II Binding Domains of Fibronectin, J. Biol. Chem. 273:2601-2609 (1998).
To identify the active region of the Hep II domain, smaller fragments including either the Type III repeat 12, the Type III repeat 14, or the Type III repeats 13 and 14 were produced as recombinant GST proteins, as above.

vinculin = test: Tyrosine phosphorylation of vinculin after treatment; format: cell-based, human; details: after treatment of the eye with the Hep II domain
Description: as §1
Further, a number of morphological changes also indicate disrupted cell contacts. […] Vinculin is a major structural protein that maintain cell-cell and cell-adhesion contracts. Changes in its phosphorylation state indicate that the treatment has biochemically affected the molecules that maintain cell-cell and cell-adhesion contracts. […]

[2] = system: human trabecular meshwork organ culture (eye); test: Human eye organ culture perfusion, paired control and test eyes, IOP
Description: While this effect on matrix formation was relatively slow, the Hep II domain acts quickly in intact eyes to increase outflow facility. In human eye culture studies using pairs of control and test eyes, as described by Johnson, D H and Tschumper, R C. (1987) Human Trabecular Meshwork Organ Culture. IVOS 28:945-953, incorporated by reference, a baseline IOP was determined, pumps were turned off and the Hep II domain was injected at 13.8 μM into the anterior chamber of one eye. The pumps were kept off for four hours to allow the Hep II domain to mix with the contents of the anterior chamber. After four hours, the treated eyes were perfused with buffer containing the Hep II domain at 13.8 μM for twenty-four hours. Untreated eyes were perfused with buffer. […] After twenty-four hours, the pumps were turned off and the perfusate in both eyes was replaced with fresh buffer without the protein.

[3] = system: Schlemm's canal endothelium and extracellular matrix of the eye; test: Light and electron microscopy of fixed treated and untreated organ-cultured eyes; set-up: species or system human; details: fixed eyes after perfusion
Description: The treated and untreated eyes were then fixed and prepared for both light and electron microscopy. […] Part of the inner side of the cannel was disrupted and small discontinuous cellular processes replaced a continuous cell layer found in a normal eye. […] These changes can account for the increased outflow in the presence of the Hep II domain since they would have created additional spaces or openings for fluid flow.

Row | Molecule | disruption of cell contacts or matrix assembly [1] | tyrosine phosphorylation of vinculin (vinculin) | level of fibronectin matrixes (turnover of fibronectin fibrils) ([1]; HTM cell cultures, 4.6 μM, eighteen hours incubation) | morphological changes indicating disrupted cell contacts ([1]; compared to untreated cultures) | morphological changes at higher peptide concentrations ([1]; higher peptide concentrations) | decrease in IOP ([2]; 13.8 μM injected into the anterior chamber, pumps off four hours, then perfusion at 13.8 μM for twenty-four hours, versus baseline) [%] | pressure in the treated eye after replacement of perfusate with buffer without the protein ([2]; after twenty-four hours perfusion, absence of the Hep II domain) | treated organ-cultured eyes with lower IOP after treatment ([2]; plurality of assays, number of treated eyes) | electron microscopy, endothelium in Schlemm's canal [3] | electron microscopy, extracellular matrix in the juxtacanalicular region [3] | light microscopy, treated versus untreated eyes [3]
1 | IDAPS (listed as Homo sapiens) | neither disrupted cell contacts or matrix assembly | – | – | – | – | – | – | – | – | – | –
2 | PRARI (listed as Homo sapiens) | neither disrupted cell contacts or matrix assembly | – | – | – | – | – | – | – | – | – | –
3 | B1 | – | significant increase | dramatic decrease | increase in the number of retraction fibers | retraction and rounding up of many cells | 32 | returned to the baseline level | six of seven | altered | altered and amorphous material appeared in the cribiform meshwork | not distinguishable

Source: US20040175377A1, “Agent and method for reducing intraocular pressure” (priority 2000, published 2004)
